# In the DeepSol protein solubility set:
# Experiment: soluble on expression in E. coli; label from the status in PepcDB or PDB records
row,Sequence,soluble on expression in E. coli
1,KVWWTLPYGPHEDEKNLTLEDWRDRVLDSTREAVAIRQRAAVDVGVLLSGGVDSSMLVGLLREVGVEDLSTFSIGFQDAGGERGDEFQYSDLIAKHYGTRHHQLRIQESEIIEQLPAAFRAMSEPMVSHDCIAFYLLSREVAKHCKVVQSGQGADELFAGYHWYPQVDGASDPVAAYRYAFVDRSYAEYADTVQPKWRTANDAAGDFVRDHFAQPGASAAVDKALRLDSTVMLVDDPVKRVDNMTMAWGLEARTPFLDYRLVELSARIPGKFKLPDGGKQVLKEAARLVIPSEVIDRKKGYFPVPGLKHLQGDTLNWVRELLTDPSQDRGLFNPTMVDKLLTNPEGQLTPLRGSKLWQLAALNLWLSEQ,not soluble
2,MDPFGILYTDLYQLTMGQVYFRMGLHEKEALFEAFYRRNPDYGAHQAGYTVFAGLDPLLSWMEEARFGEEEIAALRNLKSRSGKPLFAEDYLRYLKAMGGFSGLTLRALPEGRVAHPQVPLVSVEGPLLQAQLLETALLNRLNYETLIATKASRVREAAGEAVVLEFGLRRAPAKGGESATRASLIGGANRSSAVSLSHLLGLPASGTHAHSLVQAFMALGYSEEDAFRAFAEVFPDDAILLLDTVDTLHSGLPHAIRVFEELRRKGHRPVGVRIDSGDLAHLAIQVARELDRAGFPEVLIVLSGDLDELVIWQIKSQILEEAPRYGVDPDRLLKRLVYGVGTRMVVSWGAPALGGVYKLVAVRENGTWAPAMKVSNSLEKVLNPGHKRVYRVYDERGLATADLLALAEEEVREDAPLTLRHPTDPTKRRTLRPGSFRLEPLLEEVYRGRRLFPPLPLEELRKRRDRDVALLDPGVRRLVNPHVYHVSLTERLFALKEELVRRLEG,soluble
3,MPANIDGTLIKDPMVLNIMLFGSDERPGETGYGRSDTMMLLSIDNRNKKLKLTSFMRDTYVNVPEWGDTKLTHAYSYGGPALAIETIERNFGIDIDRYAVVYFDTFPGIVDTLGGIEVEMTQTEADVMNESVGPEFANFTEGKNTLNGATALVYVRIRYGVGDDFGRTQRQRDFMLQVLNKVKGTRDVGTLLTLLTKILPGVTTNISVNEMAGLAGGAISSYMDYPMYQFRLPEDGAFSAVDVDAGNVLAIDDWDAAREHLQRFIYEDTVDPIYGPLEHHHHHH,soluble
4,MRSVKVYEETWPLHTPFVIARGSRSEAHVVVVELEEEDVKGIGECTPYPRYGESDASVMAQIMSIVPQLENGLTREALQKLLPAGAARNAVDSALWDLQARQRQQSLAGLLGVTLAPVFTTAQTVVIGTPEQMAASAAALWEKGATLLKIKLDARLISERMVAIRSAVPEATLIVDANESWRPEGLAARCQLLADLNVAMLEQPLPAQDDAALENFIHPLPICADESCHTRSSLKALTGRYDMINIKLDKTGGLTEALALATEAREQGFGLMLGCMLCTSRAISAALPLMPQVSFADLDGPTWLAVDVEPALRFTTGQLHL,not soluble
5,SGDAASHEERMNNYRKRVGRLFMEQKAAQPDAVKLPSGLVFQRIARGSGKRAPAIDDKCEVHYTGRLRDGTVFDSSRERGKPTTFRPNEVIKGWTEALQLMREGDRWRLFIPYDLAYGVTGGGGMIPPYSPLEFDVELISIKDGGKGRTAEEVDEILRKAEEDREDM,soluble
6,MGSDKIHHHHHHMRVFIIHLSPKTCQNFSLKETHITPLLESLKLQGISYEIFDAIYSKISPTQLHPLILEHLHPSFMVEDLWAFCKNKKHPPCALKNFFYAIKHCGKRMGFGELGCYASHYSLWQKCIELNEAICILEDDIIIKDRFKESLEFCRHHINELGYIRLMHLEENVAKQKTPVKGVSQILNFKDGIGTQGYVLAPKAAQKLLKYSAKEWVMPIDCVMDRHYWHGVKNYVLEEFAIACDGMNAQNSNTEKQRPKKLPLSIRIGRSLHKSTIKFLDKVFRYSPKLIRIGKH,not soluble
7,MSLSCWKPLSKEEFEAIVSKYKDNPKIEIDYENLKFIPKFNEQIKKYYSNKIKGAKVENLVNEVYEAWFDYIIRIYERPKEKDILMFLPCAAKKPYYKSKTHRTIQRAISGFQIFNRIHRVIVSNPGIIPWEFHTYWPFNSYDWPEWEETEDIKKLYYWVTYKRVKEFLRRHQYNYYTVYMKPDSLTYKAVMDASKELNIKIIPLLDEKTYEKCKGQGNPLVKEPCIESLKNNLKQLQKQIYEGSNSEGHHHHHH,soluble
8,MKFGGVLLIVKDINKSKKFYEDVMEQKITLDLGEHVSFENGFGLQSNYKAIIGYDLPIYQQSNNFQLYFEVNDIKQWESKINRIGNIEFLHYIKEYPWGQRTFRFYDFDKNIIEISESMESVIKRLLKQGLALEEISKRTMYPVEFITQFQQLLEHHHHHH,soluble
9,MGSDKIHHHHHHMKIKHIFTDMDGTLLDSHGSVSDTNHWSIYYSDLPITLVSARSPLEMSNIVEKLQLRTPQIAFNGNLTFTQNQFGLQIIDKNPLASETVSQLLNYISTEFPNVSLNWYSLAHWYINKQDKGTFIQKAITGIEPKIKTFDGQSEIYKIMMIVFDSQELLQLQAQLNNLNIPNISVQQSGQWYLEITSDNKTKADAVQSILDNKNLDFQEIAAIGDGHNDIPLLQSAGLAIAVDNANSEVKKHVKMVVAKNTEHGVAEAISAINTINEQVI,not soluble
10,SLLNVPAGKDLPEDIYVVIEIPANADPIKYEIDKESGALFVDRFMSTAMFYPCNYGYINHTLSLDGDPVDVLVPTPYPLQPGSVTRCRPVGVLKMTDEAGEDAKLVAVPHSKLSKEYDHIKDVNDLPELLKAQIAHFFEHYKDLEKGKWVKVEGWENAEAAKAEIVASFERAKNK,soluble
11,MSILQKLENSAAAAVKALYGTDPMEGQIQLQKTKREFKGHLTLVVFPFVKMSRKSPEATATEIGEWLLANESAVSAIEVVKGFLNLTIAPRVWLELLNEIRADINFGHKVATEDSPLVMVEYSSPNTNKPLHLGHVRNNLLGYSLSEIMKANGYRVVKTNIVNDRGIHICKSMLAWQKWGDGVTPEKAGKKGDHLIGDFYVLFDKHYKAELNSLMAEGKSKEEAEAASTLMAEAREMLRLWEAGDEKVVDLWRTMNQWVYDGFDATYKMMGVDFDKIYYESETYLVGKEEVLRGLEEGLFVKHSDGSVWADLTKDGLDEKLLLRADGTSVYMTQDIGTAKMRFNDYPINRMIYVVGNEQNYHFQVLSILLDRLGFEFGKGLVHFSYGMVELPEGKMKSREGTVVDADDLMDEMIRTAAEIAAEAGKAAEMDEEESREVARIVGLGSLKYFILKVDPRKNMTFNPKESIDFNGNTGSFVQYTYARIRSLMRRAEAAGYDIPSQLPTDLPLSEKEEALIQKVSEYAEVVSEAGHSYSPALIANYIYDLVKEYNQFYHDFSVLKEEDERIRAFRLALSEVVALTMRKGFALLGIEMPERM,not soluble
12,MNDALLRALSTVNDPELHRDLVSLGMIERAELSGDVAQVKVNLTTPACPLKGQIELDVRSALLQVPGVRDVQIEFGAMVRAATQPALPGVKHVVLVGSGKGGVGKSSVAVNLAASLARDGARVGLLDADVYGPSVAHMLGQGQARVTANEDRKMRPIEAHGVRFISMANLSPAGQALVWRGPMLHSAIQQFLKDSAWGELDYLIVDLPPGTGDVQLSLTQTVQVTGAVIVTTPQDVALIDAARAIDMFRKASVPVLGVVENMSYFVAPDTGLTYDIFGRGGSRKLGEQYPLLGEIPLDVEVRKDADAGAPAILAHPESVAAQALRAVARTLAGQISVRTLSELPEQLPVLLEHHHHHH,soluble
13,MSIETFTPTPLLFTPGAANKVKTLIDEEGNPRLKLRVFVTGGGCSGFQYGFTFDEDIADDDTVIERDGVGLVVDPMSFQYLAGSEVDYQEGLEGSRFVIKNPNAATTCGCGQSFSI,not soluble
14,MELIQDTSRPPLEYVKGVPLIKYFAEALGPLQSFQARPDDLLINTYPKSGTTWVSQILDMIYQGGDLEKCNRAPIYVRVPFLEVNDPGEPSGLETLKDTPPPRLIKSHLPLALLPQTLLDQKVKVVYVARNPKDVAVSYYHFHRMEKAHPEPGTWDSFLEKFMAGEVSYGSWYQHVQEWWELSRTHPVLYLFYEDMKENPKREIQKILEFVGRSLPEETMDFMVQHTSFKEMKKNPMTNYTTVPQELMDHSISPFMRKGMAGDWKTTFTVAQNERFDADYAEKMAGCSLSFRSEL,soluble
15,MSLRLGIILHGVTGRMGYNQHLVRSVLAIRDQGGIMLKSGGRLEIDPIIVGRNRDKIEQLAKRHDIARWSTDLDAALADPNDQIFFDAGTTLMRAELIGRALDAGKHVYCEKPVSDDLRTAVKLARKARASGLKHGVVQDKLFLPGLQKLALLRDSGFFGKILSVRGEFGYWVFEGDWGVPAQRPSWNYRKKDGGGIILDMLCHWRYVLDNLFGEVKAVSCLGATHISSRIDEQGRAYDCDTDDAAYATFELEGGVIAQINSSWTVRVRRDDLVTFQVDGTHGSAVAGLTKCWTQHRVNTPKPVWNPDQPQTIDFYETWDEVPDTQAFDNGFKAQWEMFLRHVAEDSPWPYGLEAGAKGVQLAELGLKSWAERRWLDVPELEEGHHHHHH,soluble
16,MAFPRTLAILAAAAALVVACSHGGTPTGSSTTSGASPATPVAVPVPRSCAEPAGIPALLSPRDKLAQLLVVGVRDAADAQAVVTNYHVGGILIGSDTDLTIFDGALAEIVAGGGPLPLAVSVDEEGGRVSRLRSLIGGTGPSARELAQTRTVQQVRDLARDRGRQMRKLGITIDFAPVVDVTDAPDDTVIGDRSFGSDPATVTAYAGAYAQGLRDAGVLPVLKHFPGHGRGSGDSHNGGVTTPPLDDLVGDDLVPYRTLVTQAPVGVMVGHLQVPGLTGSEPASLSKAAVNLLRTGTGYGAPPFDGPVFSDDLSGMAAISDRFGVSEAVLRTLQAGADIALWVTTKEVPAVLDRLEQALRAGELPMSAVDRSVVRVATMKGPNPGCGR,not soluble
17,MKDAKGIDKQWVILNELASKISKVRPLPEDVYSKLRIANNIITYYLLDEHADFEVLRDAEKEISKIQVILFGLADQDVSKEYLIKMGQALRNEIDLEFPLKQTAFNTEVKRKKGSETIRIKMPVEVQIEVLGELSEHNGVIFELSQDDEQKILVEGVKERITSALKDFSVIWKFQDNLEHHHHHH,not soluble
18,MAHHHHHHMLRFTVPALVVFQNAYAPRVLNRMTPDRMELTMLILKERKKKVRYLGSNFQGFNDRVHLFNAQGGVRRGTRYIIETHHNRIQFKHRSRNNSMVDVRAVKMAGSQYDSIGNYTRMTWDNSLCTTNLLSDPNFKRHFKNMPKEETIGVLEEWGVRYILLDEIRKP,not soluble
19,MGSDKIHHHHHHMSRAPDTWILTADCPSMLGTVDVVTRYLFEQRCYVTEHHSFDDRQSGRFFIRVEFRQPDDFDEAGFRAGLAERSEAFGMAFELTAPNHRPKVVIMVSKADHCLNDLLYRQRIGQLGMDVVAVVSNHPDLEPLAHWHKIPYYHFALDPKDKPGQERKVLQVIEETGAELVILARYMQVLSPELCRRLDGWAINIHHSLLPGFKGAKPYHQAYNKGVKMVGATAHYINNDLDEGPIIAQGVEVVDHSHYPEDLIAKGRDIECLTLARAVGYHIERRVFLNANRTVVL,not soluble
20,SDPRGTKRGAEKTEVAEPRNKLPRPAPSLPTDPALYSGPFPFYRRPSELGCFSLDAQRQYHGDARALRYYSPPPTNGPGPNFDLRDGYPDRYQPRDEEVQERLDHLLCWLLEHRGRLEGGPGWLAEAIVTWRGHLTKLLTTPYERQEGWQLAASRFQGTLYLSEVETPNARAQRLARPPLLRELMYMGYKFEQYMCAGELPLLHSPLPLPRG,soluble
